According to paper PMC7385124, “The molecular basis of thioalcohol production in human body odour” (Scientific Reports, 2020):

Tests used:
[1] = target: Staphylococcus hominis PatB (cysteine-thiol lyase, PLP-dependent C-S lyase) (Staphylococcus hominis); assay: crystal structure; ShPatB at 15 mg/mL in 20 mM Tris pH 8, 50 mM NaCl; hanging drops, 4% Tacsimate pH 6, 12% PEG 3,350, room temperature; without and with 20 mM L-cycloserine
[2] = test system: CCCC(C)(CCO)SC[C@H](N)C(=O)O; assay: purified protein, by the assay type; design: DTNB thiol release, A412, continuous steady-state Michaelis-Menten kinetics of C-S lyase; settings: pH 7.8; 37.0 °C
Experimental: (§1) In vitro activity assays were performed using an Epoch2 (BioTek) plate reader. Reactions were measured in 96-well plate. A continuous assay, described previously[3] was used to measure 3M3SH. A 200 μL reaction contained […], variable amounts of substrate and 0.4 mM DTNB in 50 mM KPi and 200 mM NaCl, pH 7.8. […] Each reaction was incubated at 37 °C for 30 min. Release of the thiol 3M3SH was measured by reaction with DTNB to form 2-nitro-5-thiobenzoic acid (TNB) which is measured at A412 nm every minute. Background rate of DTNB decomposition was subtracted in each assay. Michaelis–Menten plots were derived from 6 to 8 substrate concentrations using Prism Version 5.01 (GraphPad) to calculate the Kcat and KM. Enzyme concentrations were assumed to be the concentration of PLP-bound enzyme with two active sites per enzyme. Velocity curves for all in vitro kinetics are shown in the supplementary information (Supplementary Information Figures S10–S12). Next, we cloned and overexpressed genes encoding a representative range of PatB-type enzymes, with two MetC proteins as controls (Fig. 2, denoted by coloured dots) and purified the proteins for biochemical analysis.

[3] = test system: CC(C)(CCO)SC[C@H](N)C(=O)O; assay: purified protein, by the assay type; design: DTNB thiol release, A412, continuous steady-state Michaelis-Menten kinetics of C-S lyase; settings: pH 7.8; 37.0 °C
Experimental: as §1

Work on “Staphylococcus hominis PatB (cysteine-thiol lyase, PLP-dependent C-S lyase) (enzyme)” yielded a stoichiometry N [1] of 2.

Substance EcTnaA (Escherichia coli K-12) has a Km [2] of 2150 µM, a kcat [2] of 0.051 s⁻¹ and a kcat/Km [2] of 23.7 M⁻¹ s⁻¹. The Km [3] was 3300 µM, the kcat [3] was 0.0117 s⁻¹ and the kcat/Km [3] was 3.33 M⁻¹ s⁻¹.
